In patent publication US20250341517A1 (published 2025):
Ends that are not written are not given here. FAM = carboxyfluorescein (FAM) fluorescent label

Experiments:
Anti-CRP antibody(r) = biological target: T1, Anti-CRP antibody(r); test: labelled peptide on antibody immobilised on microplate; antigen CRP
T1 construct: also called rabbit IgG (CRP)

L2 peptide = biological target: T2, L2 peptide; test: FRET on microplate: FAM-L2 immobilised, TAMRA-H1 incubated
T2 construct: Synthetic 14-mer homologous to the FR3 or FR4 region of the light chain; also called L2 switching peptide; second peptide compound L2
T2 peptide: {FAM}-VYYCFQGSHVPFTK

BSA = biological target: T3, BSA (UniProt P02769 25-607); test: labelled peptide on protein immobilised on microplate; fluorescence at bottom
T3 construct: also called bovine serum albumin

C-reactive protein = biological target: T4, C-reactive protein (UniProt P02741 19-224); test: as above
T4 construct: also called CRP
T4 sequence (looked up): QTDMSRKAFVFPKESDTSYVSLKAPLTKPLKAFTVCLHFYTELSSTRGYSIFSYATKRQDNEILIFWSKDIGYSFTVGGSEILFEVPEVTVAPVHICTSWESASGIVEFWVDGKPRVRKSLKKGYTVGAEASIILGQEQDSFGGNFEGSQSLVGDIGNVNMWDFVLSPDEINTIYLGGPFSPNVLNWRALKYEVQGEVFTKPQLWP

protein-A = protein-A (UniProt P38507 37-477); test: as above
Anti-HRP antibody(r) [1] = biological target: T5, Anti-HRP antibody(r); test: fluorescence in solution against HRP concentration (0.3 to 100 µM); peptide on immobilised rabbit anti-HRP antibody
T5 construct: Rabbit IgG, immobilised on a microplate; also called rabbit anti-HRP antibodies; anti-HRP antibody from a rabbit
Text: In this experiment, an anti-HRP antibody from a rabbit immobilized on a microplate was used as the binding antibody and HRP was used as the antigen.

Anti-HBsAg antibody(g) = biological target: T6, Anti-HBsAg antibody(g); test: labelled peptide on antibody immobilised on microplate; antigen HBsAg
T6 construct: also called anti-HBsAg antibodies from goats; goat IgG (HBsAg)

[2] = biological target: T7, anti-Inf-B binding antibody; test: dissociation of labelled peptide from anti-Inf-B antibody on treatment with Inf-B; fluorescence
T7 construct: also called anti-Inf-B antibody

Anti-HRP antibody(r) [3] = biological target: T5, Anti-HRP antibody(r); test: labelled peptide on antibody immobilised on microplate; antigen HRP
Anti-HRP antibody(r) [4] = biological target: T5, Anti-HRP antibody(r); test: labelled peptide on immobilised rabbit anti-HRP antibody, papain cleavage
Anti-hCG antibody(m) = biological target: T8, Anti-hCG antibody(m); test: labelled peptide on antibody immobilised on microplate; antigen hCG
T8 construct: also called mouse IgG (hCG)

[5] = biological target: T9, anti-Inf-A binding antibody; test: dissociation of labelled peptide from anti-Inf-A antibody on treatment with Inf-A; fluorescence
T9 construct: also called anti-Inf-A antibody; anti-inf A antibody

H2 peptide = biological target: T10, H2 peptide (not fully specified; fluorescent label at the end of the peptide: TAMRA in the FRET test; FAM at the N-terminus in Example 2 (Table 5) and in FIG. 16); test: FRET on microplate: FAM-L1 immobilised, TAMRA-H2 incubated
T10 construct: Synthetic 20-mer homologous to the FR3 or FR4 region of the heavy chain; The label differs between experiments; also called H2 switching peptide; fourth peptide compound H2
T10 peptide: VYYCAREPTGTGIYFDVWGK

[6] = biological target: T9, anti-Inf-A binding antibody; test: SPR biosensor, anti-Inf-A antibody immobilised on Au substrate, BSA blocked
Text: Referring to FIG. 17A, anti-Inf-A and anti-Inf-B binding antibodies were immobilized on an Au substrate using an SPR biosensor, and the blank surface of the substrate was blocked with a BSA solution to treat Inf-A and Inf-B.

[7] = biological target: T7, anti-Inf-B binding antibody; test: SPR biosensor, anti-Inf-B antibody immobilised on Au substrate, BSA blocked

T3 sequence (P02769 25-607 limits assumed): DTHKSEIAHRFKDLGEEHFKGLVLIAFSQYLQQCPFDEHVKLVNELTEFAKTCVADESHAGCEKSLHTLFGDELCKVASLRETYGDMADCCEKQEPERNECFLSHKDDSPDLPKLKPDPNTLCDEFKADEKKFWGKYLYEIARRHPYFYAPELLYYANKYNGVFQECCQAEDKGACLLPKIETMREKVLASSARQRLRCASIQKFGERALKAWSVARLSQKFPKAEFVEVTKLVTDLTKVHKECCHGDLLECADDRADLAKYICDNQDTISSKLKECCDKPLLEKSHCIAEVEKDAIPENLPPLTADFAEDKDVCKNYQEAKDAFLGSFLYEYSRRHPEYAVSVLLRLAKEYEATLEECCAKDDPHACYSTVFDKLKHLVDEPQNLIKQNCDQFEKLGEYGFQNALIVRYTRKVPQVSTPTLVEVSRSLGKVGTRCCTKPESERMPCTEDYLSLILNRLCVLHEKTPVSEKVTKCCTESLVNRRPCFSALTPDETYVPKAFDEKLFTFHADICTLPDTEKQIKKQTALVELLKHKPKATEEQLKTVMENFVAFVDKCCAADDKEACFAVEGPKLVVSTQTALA

B1: H1 peptide (peptide)
peptide: SYWIHWVKQRPGQGLEWIGE
modifications: not fully specified (N-terminus)
notes: Synthetic 20-mer homologous to the FR2 region of the heavy chain; The fluorescent label differs between experiments; also called H1 switching peptide; third peptide compound H1
change (%) of fluorescence at bottom (B) of microplate (Anti-CRP antibody(r)): -26.8%
change (%) of fluorescence in solution (S) (Anti-CRP antibody(r)): 152%
fluorescence intensity at bottom (B) of microplate after antigen binding (Anti-CRP antibody(r)): 3600
fluorescence intensity at bottom (B) of microplate before antigen binding (Anti-CRP antibody(r)): 4910
fluorescence intensity in solution (S) after antigen binding (Anti-CRP antibody(r)): 5660
fluorescence intensity in solution (S) before antigen binding (Anti-CRP antibody(r)): 2240
binding result (L2 peptide): binds
binding result (BSA): no binding
binding result (C-reactive protein): no binding
binding result (protein-A): no binding
Kd (Anti-HRP antibody(r) [1]): 1.65 µM
change (%) of fluorescence at bottom (B) of microplate (Anti-HBsAg antibody(g)): -58.9%
change (%) of fluorescence in solution (S) (Anti-HBsAg antibody(g)): 410%
fluorescence intensity at bottom (B) of microplate after antigen binding (Anti-HBsAg antibody(g)): 4620
fluorescence intensity at bottom (B) of microplate before antigen binding (Anti-HBsAg antibody(g)): 11200
fluorescence intensity in solution (S) after antigen binding (Anti-HBsAg antibody(g)): 11500
fluorescence intensity in solution (S) before antigen binding (Anti-HBsAg antibody(g)): 2240
relative change in fluorescence signal [2]: 145%
change (%) of fluorescence at bottom (B) of microplate (Anti-HRP antibody(r) [3]): -87.7%
change (%) of fluorescence in solution (S) (Anti-HRP antibody(r) [3]): 746%
fluorescence intensity at bottom (B) of microplate after antigen binding (Anti-HRP antibody(r) [3]): 1450
fluorescence intensity at bottom (B) of microplate before antigen binding (Anti-HRP antibody(r) [3]): 11800
fluorescence intensity in solution (S) after antigen binding (Anti-HRP antibody(r) [3]): 22000
fluorescence intensity in solution (S) before antigen binding (Anti-HRP antibody(r) [3]): 2600
decrease of fluorescence intensity at the bottom of the microplate after papain treatment (Anti-HRP antibody(r) [4]): 84.3%
increase of fluorescence intensity in the solution after papain treatment (Anti-HRP antibody(r) [4]): 2180%
change (%) of fluorescence at bottom (B) of microplate (Anti-hCG antibody(m)): -65.6%
change (%) of fluorescence in solution (S) (Anti-hCG antibody(m)): 206%
fluorescence intensity at bottom (B) of microplate after antigen binding (Anti-hCG antibody(m)): 1940
fluorescence intensity at bottom (B) of microplate before antigen binding (Anti-hCG antibody(m)): 5650
fluorescence intensity in solution (S) after antigen binding (Anti-hCG antibody(m)): 3920
fluorescence intensity in solution (S) before antigen binding (Anti-hCG antibody(m)): 1280
relative change in fluorescence signal [5]: 130%

B2: L1 peptide (peptide)
peptide: TYLEWYPQKPGQSPKLLIYK
modifications: not fully specified (N-terminus)
notes: Synthetic 20-mer homologous to the FR2 region of the light chain; The label differs between experiments; also called L1 switching peptide; first peptide compound L1
change (%) of fluorescence at bottom (B) of microplate (Anti-CRP antibody(r)): -48.6%
change (%) of fluorescence in solution (S) (Anti-CRP antibody(r)): 778%
fluorescence intensity at bottom (B) of microplate after antigen binding (Anti-CRP antibody(r)): 3460
fluorescence intensity at bottom (B) of microplate before antigen binding (Anti-CRP antibody(r)): 6720
fluorescence intensity in solution (S) after antigen binding (Anti-CRP antibody(r)): 6500
fluorescence intensity in solution (S) before antigen binding (Anti-CRP antibody(r)): 741
binding result (H2 peptide): binds
binding result (BSA): no binding
binding result (C-reactive protein): no binding
binding result (protein-A): no binding
Kd [6]: 14 µM
Kd (Anti-HRP antibody(r) [1]): 3.29 µM
change (%) of fluorescence at bottom (B) of microplate (Anti-HBsAg antibody(g)): -51.3%
change (%) of fluorescence in solution (S) (Anti-HBsAg antibody(g)): 638%
fluorescence intensity at bottom (B) of microplate after antigen binding (Anti-HBsAg antibody(g)): 5390
fluorescence intensity at bottom (B) of microplate before antigen binding (Anti-HBsAg antibody(g)): 11100
fluorescence intensity in solution (S) after antigen binding (Anti-HBsAg antibody(g)): 20500
fluorescence intensity in solution (S) before antigen binding (Anti-HBsAg antibody(g)): 2780
relative change in fluorescence signal [2]: 180%
change (%) of fluorescence at bottom (B) of microplate (Anti-HRP antibody(r) [3]): -87.3%
change (%) of fluorescence in solution (S) (Anti-HRP antibody(r) [3]): 357%
fluorescence intensity at bottom (B) of microplate after antigen binding (Anti-HRP antibody(r) [3]): 1990
fluorescence intensity at bottom (B) of microplate before antigen binding (Anti-HRP antibody(r) [3]): 15600
fluorescence intensity in solution (S) after antigen binding (Anti-HRP antibody(r) [3]): 12300
fluorescence intensity in solution (S) before antigen binding (Anti-HRP antibody(r) [3]): 2690
decrease of fluorescence intensity at the bottom of the microplate after papain treatment (Anti-HRP antibody(r) [4]): 84.8%
increase of fluorescence intensity in the solution after papain treatment (Anti-HRP antibody(r) [4]): 1030%
Kd [7]: 14 µM
change (%) of fluorescence at bottom (B) of microplate (Anti-hCG antibody(m)): -61.6%
change (%) of fluorescence in solution (S) (Anti-hCG antibody(m)): 187%
fluorescence intensity at bottom (B) of microplate after antigen binding (Anti-hCG antibody(m)): 1780
fluorescence intensity at bottom (B) of microplate before antigen binding (Anti-hCG antibody(m)): 4630
fluorescence intensity in solution (S) after antigen binding (Anti-hCG antibody(m)): 3580
fluorescence intensity in solution (S) before antigen binding (Anti-hCG antibody(m)): 1250
relative change in fluorescence signal [5]: 176%
